These results are taken from PMC517823 (2004).

Numbering of substitutions follows the chain as printed.

T1: Ffh (UniProt P0AGD7 1-453)
T1 chain: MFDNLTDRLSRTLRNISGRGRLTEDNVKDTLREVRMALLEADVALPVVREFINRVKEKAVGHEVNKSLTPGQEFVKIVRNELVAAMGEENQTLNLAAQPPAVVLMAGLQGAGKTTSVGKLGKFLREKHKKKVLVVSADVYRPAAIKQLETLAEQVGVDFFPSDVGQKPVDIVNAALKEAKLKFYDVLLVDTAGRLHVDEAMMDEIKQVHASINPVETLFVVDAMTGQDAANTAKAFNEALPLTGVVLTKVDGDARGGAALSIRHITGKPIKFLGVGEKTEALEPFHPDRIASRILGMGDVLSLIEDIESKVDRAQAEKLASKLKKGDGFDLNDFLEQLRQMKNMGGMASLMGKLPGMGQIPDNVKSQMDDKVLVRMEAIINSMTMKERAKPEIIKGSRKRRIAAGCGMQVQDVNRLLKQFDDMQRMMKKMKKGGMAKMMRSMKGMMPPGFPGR

B1: FtsY D330(135)A (protein)
chain: ASEQAVEEQPQAHTEAEAETFAADVVEVTEQVAESEKAQPEAEVVAQPEPVVEETPEPVAIEREELPLPEDVNAEAVSPEEWQAEAETVEIVEAAEEEAAKEEITDEELETALAAEAAEEAVMVVPPAEEEQPVEEIAQEQEKPTKEGFFARLKRSLLKTKENLGSGFISLFRGKKIDDDLFEELEEQLLIADVGVETTRKIITNLTEGASRKQLRDAEALYGLLKEEMGEILAKVDEPLNVEGKAPFVILMVGVNGVGKTTTIGKLARQFEQQGKSVMLAAGATFRAAAVEQLQVWGQRNNIPVIAQHTGADSASVIFDAIQAAKARNIDVLIADTAGRLQNKSHLMEELKKIVRVMKKLDVEAPHEVMLTIDASTGQNAVSQAKLFHEAVGLTGITLTKLDGTAKGGVIFSVADQFGIPIRYIGVGERIEDLRPFKADDFIEALFARED
B2: FtsY D479(278)A (protein)
chain: B1 chain with A284D, D433A
B3: FtsY T307(112)W (protein)
chain: B1 chain with T261W, A284D
B4: FtsY G454(253)W (protein)
chain: B1 chain with A284D, G408W
B5: FtsY T307(112)A (domain or fragment)
chain: B1 chain with T261A, A284D
B6: FtsY K306(111)A (protein)
chain: B1 chain with K260A, A284D
B7: FtsY K453(252)E (protein)
chain: B1 chain with A284D, K407E
B8: FtsY K447(246)A (protein)
chain: B1 chain with A284D, K401A
B9: FtsY A336(141)W (domain or fragment)
chain: B1 chain with A284D, A290W
B10: FtsY R333(138)A (domain or fragment)
chain: B1 chain with A284D, R287A
B11: FtsY Q339(144)A (protein)
chain: B1 chain with A284D, Q293A
B12: FtsY D382(187)A (protein)
chain: B1 chain with A284D, D336A
B13: FtsY Asn302(107) to Ala (domain or fragment)
chain: B1 chain with N256A, A284D
B14: FtsY K312(117)A (protein)
chain: B1 chain with K266A, A284D
B15: FtsY Asn302(107) to Trp (domain or fragment)
chain: B1 chain with N256W, A284D

The target in the first assay is T1, Ffh. Nature of the assay: GTP; inhibition assay.
As usually defined, the Ki is the dissociation constant of the complex between target and ligand, obtained from inhibition or displacement. Read a high Ki as lower affinity. B1 yielded a Ki of 2.4 µM.

B2: the Ki turned out to be 2.8 µM.

As for B3, the Ki turned out to be 9.9 µM.

B4 yielded an inhibition constant Ki of 4.2 µM.

Molecule B5 had a Ki of 7.1 µM.

As for B6, the affinity corresponds to a Ki of 3.5 µM. This Ki lies about 2-fold lower than the previous one.

The molecule B7 registered a Ki of 3.1 µM.

In turn, B8 showed an inhibition constant Ki of 11 µM.

In the case of B9, the Ki was found to be 0.16 µM.

B10: affinity was put at a Ki of 0.24 µM.

As for B11, the inhibition constant Ki was 3.9 µM.

As for B12, the affinity, expressed as Ki, was 27 µM. Against the preceding molecule, the Ki is about 6.9-fold higher.

In turn, B13 returned an inhibition constant Ki of 0.11 µM.

Molecule B14 had an inhibitory constant (Ki) of 2.4 µM. This Ki lies about 22-fold higher than the previous one.

The molecule B15 yielded a Ki of 0.14 µM. This Ki lies about 17-fold lower than the previous one.

For the next assay, the target named is T1, Ffh. Nature of the assay: GTP; inhibition assay. This is another data set of the same source.
In turn, B5 had an inhibition constant Ki of 5.5 µM. This counts as single-digit micromolar.
